Like-named read-outs stand apart in the source and are kept apart here.
Experiments:
Experiment in all cases: EMSA
Spalt major (Salm) [1] = target: T1, Spalt major (Salm) (UniProt P39770 1-1365)
T1 sequence: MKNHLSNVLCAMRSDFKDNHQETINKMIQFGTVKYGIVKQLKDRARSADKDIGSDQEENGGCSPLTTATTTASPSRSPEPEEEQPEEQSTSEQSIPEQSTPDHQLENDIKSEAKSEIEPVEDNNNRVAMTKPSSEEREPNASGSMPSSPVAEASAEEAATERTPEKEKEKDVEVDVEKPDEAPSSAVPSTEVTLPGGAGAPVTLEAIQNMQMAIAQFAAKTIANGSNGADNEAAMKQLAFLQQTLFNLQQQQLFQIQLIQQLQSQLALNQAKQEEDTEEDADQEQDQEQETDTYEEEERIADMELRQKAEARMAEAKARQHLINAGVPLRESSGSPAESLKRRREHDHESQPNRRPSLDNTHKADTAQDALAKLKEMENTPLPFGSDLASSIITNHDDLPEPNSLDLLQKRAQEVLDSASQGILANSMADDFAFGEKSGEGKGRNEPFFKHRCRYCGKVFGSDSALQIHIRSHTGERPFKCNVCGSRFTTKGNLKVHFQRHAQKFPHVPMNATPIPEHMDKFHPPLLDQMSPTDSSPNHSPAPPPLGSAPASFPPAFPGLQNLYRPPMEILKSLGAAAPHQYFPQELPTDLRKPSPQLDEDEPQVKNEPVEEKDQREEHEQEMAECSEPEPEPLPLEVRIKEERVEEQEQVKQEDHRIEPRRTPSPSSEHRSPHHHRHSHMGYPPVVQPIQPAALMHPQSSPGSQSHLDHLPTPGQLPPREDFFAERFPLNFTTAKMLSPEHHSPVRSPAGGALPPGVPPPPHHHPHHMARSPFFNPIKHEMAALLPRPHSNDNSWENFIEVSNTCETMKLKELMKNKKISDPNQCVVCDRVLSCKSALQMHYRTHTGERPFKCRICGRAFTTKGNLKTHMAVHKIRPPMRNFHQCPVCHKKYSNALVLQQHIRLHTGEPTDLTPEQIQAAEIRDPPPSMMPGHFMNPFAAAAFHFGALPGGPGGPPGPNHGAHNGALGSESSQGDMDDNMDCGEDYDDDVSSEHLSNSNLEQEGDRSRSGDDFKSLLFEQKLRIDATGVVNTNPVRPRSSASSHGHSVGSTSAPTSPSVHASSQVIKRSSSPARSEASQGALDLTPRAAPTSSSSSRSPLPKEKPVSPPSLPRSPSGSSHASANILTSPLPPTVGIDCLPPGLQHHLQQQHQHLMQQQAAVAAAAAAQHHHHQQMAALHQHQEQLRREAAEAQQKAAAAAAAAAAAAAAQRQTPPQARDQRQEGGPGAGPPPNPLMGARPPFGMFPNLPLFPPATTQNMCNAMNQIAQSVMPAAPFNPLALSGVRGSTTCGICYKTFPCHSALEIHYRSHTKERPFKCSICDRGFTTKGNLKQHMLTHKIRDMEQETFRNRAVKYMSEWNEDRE

Spalt major (Salm) [2] = target: T1, Spalt major (Salm); remark: listed apart in the source
Spalt major (Salm) [3] = target: T1, Spalt major (Salm); remark: listed apart in the source

B1: 60salC (5' half, conserved) (dsDNA)
DNA 1: GCAAAAAGATATCAAAAATGTCGCATATT
DNA 2: AATATGCGACATTTTTGATATCTTTTTGC
- binding result (Spalt major (Salm) [1]): binds

B2: 60salNC (3' half, non-conserved) (dsDNA)
DNA 1: TTAATAACGCTCTCCATTGGCGGACACAGGAC
DNA 2: GTCCTGTGTCCGCCAATGGAGAGCGTTATTAA
- binding result (Spalt major (Salm) [2]): binds

B3: 60sal (dsDNA)
DNA 1: GCAAAAAGATATCAAAAATGTCGCATATTAATAACGCTCTCCATTGGCGGACACAGGAC
DNA 2: GTCCTGTGTCCGCCAATGGAGAGCGTTATTAATATGCGACATTTTTGATATCTTTTTGC
- binding result (Spalt major (Salm) [3]): binds
